Data as given in PMC5983740, “Tryptophan-Containing Dual Neuroprotective Peptides: Prolyl Endopeptidase Inhibition and Caenorhabditis elegans Protection from β-Amyloid Peptide Toxicity” (International Journal of Molecular Sciences, 2018).

Biological target: T1, prolyl endopeptidase (PEP) (Elizabethkingia meningoseptica, UniProt P27028)
T1 construct: purchased Seikagaku Corporation (Tokyo, Japan)
Assay: biochemical
Type: biochemical
Conditions: 0.7 and 1.4 mg/mL
Experimental: The PEP activity was determined as previously described with minor modifications. Enzyme assays were performed in 96-well microplates using Z-Gly-Pro-p-nitroanilide as a substrate and measuring the increase in absorbance at 410 nm due to the release of p-nitroaniline. Ten µL of tenfold peptide or hydrolysate solution in 100 mM sodium phosphate buffer, pH 7 ([…] for LFHs), 30 µL of a 0.1 U/mL PEP solution in 100 mM sodium phosphate buffer (pH 7) and 35 µL of the same sodium phosphate buffer were pre-incubated at 30 °C for 5 min, and the mixture incubated with 25 µL of 2 mM Z-Gly-Pro-p-nitroanilide in 40% 1,4-dioxane for 30 min at the same temperature. The reaction was finished by the addition of 100 µL 10% Triton X-100 in 1 M sodium acetate buffer (pH 4), and the absorbance measured at 410 nm in a microplate reader. Data are expressed as the percentage of PEP residual activity with respect to a control without peptide (100%).
The IC50 value of a peptide was defined as the concentration required to inhibit 50% of the PEP activity and the value for each experiment was estimated by non-linear regression of the experimental data to a four-parameter logistic curve using the software package SigmaPlot v 13.0 (SPSS Inc., Chicago, IL, USA).

T1 sequence (P27028 21-705): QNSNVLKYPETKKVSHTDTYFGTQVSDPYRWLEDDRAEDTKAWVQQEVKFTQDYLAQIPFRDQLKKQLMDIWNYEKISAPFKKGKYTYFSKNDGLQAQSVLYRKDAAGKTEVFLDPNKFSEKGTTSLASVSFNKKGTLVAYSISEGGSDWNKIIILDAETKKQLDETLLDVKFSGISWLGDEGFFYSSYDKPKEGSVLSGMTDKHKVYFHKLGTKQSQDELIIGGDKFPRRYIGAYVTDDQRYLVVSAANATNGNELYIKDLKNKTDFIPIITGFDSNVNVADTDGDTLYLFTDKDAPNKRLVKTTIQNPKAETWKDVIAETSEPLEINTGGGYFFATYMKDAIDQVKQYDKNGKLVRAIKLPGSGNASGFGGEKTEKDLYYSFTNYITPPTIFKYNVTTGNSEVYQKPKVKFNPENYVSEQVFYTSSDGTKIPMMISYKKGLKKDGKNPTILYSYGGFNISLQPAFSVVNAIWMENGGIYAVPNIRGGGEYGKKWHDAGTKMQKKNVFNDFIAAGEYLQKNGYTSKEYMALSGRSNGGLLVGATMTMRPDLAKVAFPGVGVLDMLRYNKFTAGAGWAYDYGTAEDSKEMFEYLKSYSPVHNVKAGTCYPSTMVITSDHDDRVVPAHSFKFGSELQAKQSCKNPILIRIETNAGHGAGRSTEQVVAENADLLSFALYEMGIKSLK

B1: Non-hydrolysed LF: bovine lactoferrin, multifunctional iron glycoprotein of milk whey, not hydrolysed (protein, UniProt P24627 20-708, looked up)
Lactotransferrin: APRKNVRWCTISQPEWFKCRRWQWRMKKLGAPSITCVRRAFALECIRAIAEKKADAVTLDGGMVFEAGRDPYKLRPVAAEIYGTKESPQTHYYAVAVVKKGSNFQLDQLQGRKSCHTGLGRSAGWIIPMGILRPYLSWTESLEPLQGAVAKFFSASCVPCIDRQAYPNLCQLCKGEGENQCACSSREPYFGYSGAFKCLQDGAGDVAFVKETTVFENLPEKADRDQYELLCLNNSRAPVDAFKECHLAQVPSHAVVARSVDGKEDLIWKLLSKAQEKFGKNKSRSFQLFGSPPGQRDLLFKDSALGFLRIPSKVDSALYLGSRYLTTLKNLRETAEEVKARYTRVVWCAVGPEEQKKCQQWSQQSGQNVTCATASTTDDCIVLVLKGEADALNLDGGYIYTAGKCGLVPVLAENRKSSKHSSLDCVLRPTEGYLAVAVVKKANEGLTWNSLKDKKSCHTAVDRTAGWNIPMGLIVNQTGSCAFDEFFSQSCAPGADPKSRLCALCAGDDQGLDKCVPNSKEKYYGYTGAFRCLAEDVGDVAFVKNDTVWENTNGESTADWAKNLNREDFRLLCLDGTRKPVTEAQSCHLAVAPNHAVVSRSDRAAHVKQVLLHQQALFGKNGKNCPDKFCLFKSETKNLLFNDNTECLAKLGGRPTYEEYLGTEYVTAIANLKKCSTSPLLEACAFLTR
  inhibitory effect on PEP activity: did not show any inhibitory effect
